Test results as given in patent publication US20240376151A1, “STAPLED PEPTIDES AND METHODS THEREOF” (FOG PHARMACEUTICALS, INC., priority 2022, published 2024).
Numbered stars: 1 amine (or outer) side, 2 acyl side, 3 side chain; on linkers, the order of the positions; unused ones are H or OH. Bridge positions count the residues as written; N and C are the ends. Ends that are not written are not given here. Phenylene(1,4-NHCOCH2)2 = O=C(C[*:1])Nc1ccc(NC(=O)C[*:2])cc1

Biological target: T1, WWP2^HECT (Homo sapiens, UniProt O00308)
T1 construct: GST-TEV (N, cleaved yes); made in house; host or cells: Escherichia coli BL21 (DE3)
T1 sequence (O00308 492-865): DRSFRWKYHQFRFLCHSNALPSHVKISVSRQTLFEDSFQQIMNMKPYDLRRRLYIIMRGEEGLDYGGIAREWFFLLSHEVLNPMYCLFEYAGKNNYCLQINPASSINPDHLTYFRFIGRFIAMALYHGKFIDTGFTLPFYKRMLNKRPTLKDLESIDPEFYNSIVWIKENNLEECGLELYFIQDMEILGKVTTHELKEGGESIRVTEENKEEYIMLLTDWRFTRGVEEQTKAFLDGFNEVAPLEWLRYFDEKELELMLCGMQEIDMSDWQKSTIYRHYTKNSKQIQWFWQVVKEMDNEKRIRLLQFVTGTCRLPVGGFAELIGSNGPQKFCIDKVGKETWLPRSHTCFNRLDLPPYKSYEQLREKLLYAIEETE
Assay: Naive Library Presenter Screening (phage, NGS), WWP2^HECT
Format: binding
Details: for interaction data at Target Concentration 10: WWP2 target concentration 10 nM; for interaction data at Target Concentration 100: WWP2 target concentration 100 nM; for interaction data at Target Concentration 300: WWP2 target concentration 300 nM; for interaction data at Target Concentration 1000: WWP2 target concentration 1000 nM; for interaction data at Target Concentration 30: WWP2 target concentration 30 nM

Row | Sequence | interaction data at Target Concentration 10 | interaction data at Target Concentration 100 | interaction data at Target Concentration 300 | interaction data at Target Concentration 1000 (first column) | interaction data at Target Concentration 1000 (second column) | interaction data at Target Concentration 30
1 | DPAAWDCRYAALACYIH (linker 7-14 via Phenylene(1,4-NHCOCH2)2 (inferred)) | 0 | 2 | 11 | 66 | 34 | –
2 | DPAIHSCYAAAETCQFF (linker 7-14 via Phenylene(1,4-NHCOCH2)2 (inferred)) | 43 | 89 | 139 | 127 | 194 | 87
3 | DPAIQNCRSAADVCMFF (linker 7-14 via Phenylene(1,4-NHCOCH2)2; not fully specified (C-terminus)) | 0 | 96 | 109 | 117 | 127 | 65
4 | DPAIWDCLYAATNCYIN (linker 7-14 via Phenylene(1,4-NHCOCH2)2; not fully specified (C-terminus)) | 0 | 0 | 8 | 12 | 20 | 0
5 | DPALIHCRAAADTCAFW (linker 7-14 via Phenylene(1,4-NHCOCH2)2; not fully specified (C-terminus)) | 87 | 384 | 608 | 419 | 565 | 318
6 | DPALLHCMAAAQTCSFF (linker 7-14 via Phenylene(1,4-NHCOCH2)2; not fully specified (C-terminus)) | 0 | 26 | 37 | 59 | 123 | 47
7 | DPALWECMTAADWCMFM (linker 7-14 via Phenylene(1,4-NHCOCH2)2; not fully specified (C-terminus)) | 1 | 17 | 18 | 28 | 32 | 24
8 | DPALWECRNAAWQCWMH (linker 7-14 via Phenylene(1,4-NHCOCH2)2; not fully specified (C-terminus)) | 0 | 0 | 24 | 35 | 27 | 0
9 | DPALWHCLAAAETCAMF (linker 7-14 via Phenylene(1,4-NHCOCH2)2; not fully specified (C-terminus)) | 4 | 24 | 49 | 47 | 76 | 38
10 | DPAMWDCRYAALDCYMT (DPAMWDCRYAALDCYMT-NH2; linker 7-14 via Phenylene(1,4-NHCOCH2)2; N-terminus assumed; SMILES CSCC[C@H](NC(=O)[C@H](C)NC(=O)[C@@H]1CCCN1C(=O)[C@@H](N)CC(=O)O)C(=O)N[C@@H](Cc1c[nH]c2ccccc12)C(=O)N[C@@H](CC(=O)O)C(=O)N[C@H]1CSCC(=O)Nc2ccc(cc2)NC(=O)CSC[C@@H](C(=O)N[C@@H](Cc2ccc(O)cc2)C(=O)N[C@@H](CCSC)C(=O)N[C@H](C(N)=O)[C@@H](C)O)NC(=O)[C@H](CC(=O)O)NC(=O)[C@H](CC(C)C)NC(=O)[C@H](C)NC(=O)[C@H](C)NC(=O)[C@H](Cc2ccc(O)cc2)NC(=O)[C@H](CCCNC(=N)N)NC1=O) | 0 | 6 | 23 | 62 | 24 | 0
11 | DPAMWSCRYAAWECWVL (DPAMWSCRYAAWECWVL-NH2; linker 7-14 via Phenylene(1,4-NHCOCH2)2; N-terminus assumed; SMILES CSCC[C@H](NC(=O)[C@H](C)NC(=O)[C@@H]1CCCN1C(=O)[C@@H](N)CC(=O)O)C(=O)N[C@@H](Cc1c[nH]c2ccccc12)C(=O)N[C@@H](CO)C(=O)N[C@H]1CSCC(=O)Nc2ccc(cc2)NC(=O)CSC[C@@H](C(=O)N[C@@H](Cc2c[nH]c3ccccc23)C(=O)N[C@H](C(=O)N[C@@H](CC(C)C)C(N)=O)C(C)C)NC(=O)[C@H](CCC(=O)O)NC(=O)[C@H](Cc2c[nH]c3ccccc23)NC(=O)[C@H](C)NC(=O)[C@H](C)NC(=O)[C@H](Cc2ccc(O)cc2)NC(=O)[C@H](CCCNC(=N)N)NC1=O) | 0 | 0 | 8 | 7 | 28 | 0
12 | DPANWDCQQAAWLCIIQ (DPANWDCQQAAWLCIIQ-NH2; linker 7-14 via Phenylene(1,4-NHCOCH2)2; N-terminus assumed; SMILES CC[C@H](C)[C@H](NC(=O)[C@@H]1CSCC(=O)Nc2ccc(cc2)NC(=O)CSC[C@H](NC(=O)[C@H](CC(=O)O)NC(=O)[C@H](Cc2c[nH]c3ccccc23)NC(=O)[C@H](CC(N)=O)NC(=O)[C@H](C)NC(=O)[C@@H]2CCCN2C(=O)[C@@H](N)CC(=O)O)C(=O)N[C@@H](CCC(N)=O)C(=O)N[C@@H](CCC(N)=O)C(=O)N[C@@H](C)C(=O)N[C@@H](C)C(=O)N[C@@H](Cc2c[nH]c3ccccc23)C(=O)N[C@@H](CC(C)C)C(=O)N1)C(=O)N[C@H](C(=O)N[C@@H](CCC(N)=O)C(N)=O)[C@@H](C)CC) | 0 | 0 | 8 | 7 | 27 | 0
13 | DPAQDTCRAAADTCAFF (DPAQDTCRAAADTCAFF-NH2; linker 7-14 via Phenylene(1,4-NHCOCH2)2; N-terminus assumed; SMILES C[C@@H]1NC(=O)[C@H](C)NC(=O)[C@H](CCCNC(=N)N)NC(=O)[C@@H](NC(=O)[C@@H](NC(=O)[C@H](CC(=O)O)NC(=O)[C@H](CCC(N)=O)NC(=O)[C@H](C)NC(=O)[C@@H]2CCCN2C(=O)[C@@H](N)CC(=O)O)[C@@H](C)O)CSCC(=O)Nc2ccc(cc2)NC(=O)CSC[C@@H](C(=O)N[C@@H](C)C(=O)N[C@@H](Cc2ccccc2)C(=O)N[C@@H](Cc2ccccc2)C(N)=O)NC(=O)[C@H]([C@@H](C)O)NC(=O)[C@H](CC(=O)O)NC(=O)[C@H](C)NC1=O) | 8 | 267 | 241 | 232 | 373 | 159
14 | DPAQNMCQAAADVCMFF (DPAQNMCQAAADVCMFF-NH2; linker 7-14 via Phenylene(1,4-NHCOCH2)2; N-terminus assumed; SMILES CSCC[C@H](NC(=O)[C@H](CC(N)=O)NC(=O)[C@H](CCC(N)=O)NC(=O)[C@H](C)NC(=O)[C@@H]1CCCN1C(=O)[C@@H](N)CC(=O)O)C(=O)N[C@H]1CSCC(=O)Nc2ccc(cc2)NC(=O)CSC[C@@H](C(=O)N[C@@H](CCSC)C(=O)N[C@@H](Cc2ccccc2)C(=O)N[C@@H](Cc2ccccc2)C(N)=O)NC(=O)[C@H](C(C)C)NC(=O)[C@H](CC(=O)O)NC(=O)[C@H](C)NC(=O)[C@H](C)NC(=O)[C@H](C)NC(=O)[C@H](CCC(N)=O)NC1=O) | 2 | 51 | 125 | 120 | 127 | 67
15 | DPARVDCLVAADMCHMF (DPARVDCLVAADMCHMF-NH2; linker 7-14 via Phenylene(1,4-NHCOCH2)2; N-terminus assumed; SMILES CSCC[C@H](NC(=O)[C@H](Cc1c[nH]cn1)NC(=O)[C@@H]1CSCC(=O)Nc2ccc(cc2)NC(=O)CSC[C@H](NC(=O)[C@H](CC(=O)O)NC(=O)[C@@H](NC(=O)[C@H](CCCNC(=N)N)NC(=O)[C@H](C)NC(=O)[C@@H]2CCCN2C(=O)[C@@H](N)CC(=O)O)C(C)C)C(=O)N[C@@H](CC(C)C)C(=O)N[C@@H](C(C)C)C(=O)N[C@@H](C)C(=O)N[C@@H](C)C(=O)N[C@@H](CC(=O)O)C(=O)N[C@@H](CCSC)C(=O)N1)C(=O)N[C@@H](Cc1ccccc1)C(N)=O) | 165 | 522 | 555 | 466 | 573 | 532
16 | DPARVNCHAAADTCFFF (linker 7-14 via Phenylene(1,4-NHCOCH2)2) | 6 | 76 | 103 | – | 123 | 83
17 | DPATWACINAAHNCWRN (DPATWACINAAHNCWRN-NH2; linker 7-14 via Phenylene(1,4-NHCOCH2)2 (inferred)) | 0 | 0 | 6 | 23 | 15 | 0
